This data set has as its target PARP-1 (UniProt P09874). Description: EMSA. Conditions: EMSA: 20 mM Tris-HCl pH 8, 30 mM KCl, 1.5 mM MgCl2, 1 mM DTT, 8% glycerol, 50 uM ZnAc, 2.5 ng/mL poly[dI-dC], 25 C, 50 nM DNA; pull-down: 20 mM Tris-HCl pH …. For orientation: In EMSA bound probe runs differently from free probe, usually more slowly.
Chain of PARP-1 (P09874 2-1014): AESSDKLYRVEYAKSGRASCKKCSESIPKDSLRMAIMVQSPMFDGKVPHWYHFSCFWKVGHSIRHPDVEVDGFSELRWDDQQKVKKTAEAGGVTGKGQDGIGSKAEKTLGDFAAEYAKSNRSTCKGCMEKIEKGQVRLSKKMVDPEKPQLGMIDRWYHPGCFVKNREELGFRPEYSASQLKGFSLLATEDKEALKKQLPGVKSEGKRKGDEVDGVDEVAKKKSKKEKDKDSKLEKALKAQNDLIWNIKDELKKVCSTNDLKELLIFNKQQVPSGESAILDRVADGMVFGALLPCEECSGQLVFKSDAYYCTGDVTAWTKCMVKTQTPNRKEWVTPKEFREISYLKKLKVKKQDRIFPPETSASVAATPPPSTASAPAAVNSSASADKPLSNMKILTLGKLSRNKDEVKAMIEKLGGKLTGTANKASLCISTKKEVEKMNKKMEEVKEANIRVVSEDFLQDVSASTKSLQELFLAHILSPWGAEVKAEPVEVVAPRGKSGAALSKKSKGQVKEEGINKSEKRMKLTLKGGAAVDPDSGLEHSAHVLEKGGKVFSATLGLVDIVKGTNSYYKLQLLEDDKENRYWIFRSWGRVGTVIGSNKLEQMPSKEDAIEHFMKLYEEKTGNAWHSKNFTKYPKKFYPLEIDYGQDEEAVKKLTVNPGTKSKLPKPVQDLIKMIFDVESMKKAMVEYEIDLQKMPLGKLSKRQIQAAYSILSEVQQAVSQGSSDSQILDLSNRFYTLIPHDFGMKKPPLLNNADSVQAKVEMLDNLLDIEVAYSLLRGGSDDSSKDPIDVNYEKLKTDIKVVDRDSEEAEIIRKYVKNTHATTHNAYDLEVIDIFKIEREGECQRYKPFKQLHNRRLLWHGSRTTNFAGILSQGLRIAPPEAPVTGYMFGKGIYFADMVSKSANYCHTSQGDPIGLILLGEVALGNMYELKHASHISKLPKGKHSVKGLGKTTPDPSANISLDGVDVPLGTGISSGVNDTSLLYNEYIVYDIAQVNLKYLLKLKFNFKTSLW
In general, Kd refers to a measure of binding affinity in units of concentration. Read a high Kd as a looser complex. Take “CGGGCCGGCGGGGGAGGAGCGGGGGCCGGGC [Cy5.5-mid2 (G4 mid2)]”: the Kd stood at 0.37 µM.
For the sequence “CGGGGAGAAGGAGGGGGCCGGGCCGGGC [Cy5.5-mid1 (G4 mid1)]”, the Kd was found to be 0.36 µM.
In the case of “AGGGCGGTGTGGGAAGAGGGAAGAGGGGGAGG [Cy5.5-32R (G4 32R)]” it was 0.2 µM.

The values are drawn from PMC7504130.
